Source: patent US20250115886A1

Target: TsCC(A)-(RGG)3-GFP scaffold (Caenorhabditis elegans)
Assay: integrated fluorescence intensity in condensates over whole cell, U2OS cells

Rac1-mCherry-TsCC(B) (from UniProt P63000 1-189)
fraction of client localized to the synthetic organelle: 50%
